In US20180017550A1:

Molecular target: human APC mutation cluster region fragment (codons 1,294-1,369) with N-terminal VSV tag, 4 glycine s (human) (UniProt P25054)
Sequence (P25054 other isoform, or with tags, fused parts or gaps limits assumed): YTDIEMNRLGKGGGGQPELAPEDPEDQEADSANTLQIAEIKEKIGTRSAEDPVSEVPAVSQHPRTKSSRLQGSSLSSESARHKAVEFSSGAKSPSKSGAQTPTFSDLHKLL

## anti-VSV antibody conjugated to the Cy3 fluorophore (clone P5D4; Sigma-Aldrich, St. Louis, Mo.)
  signal to noise ratio: 179 :1
